The DeepSol protein solubility set

Test: soluble on expression in E. coli; label from the status in PepcDB or PDB records

Row | Sequence | soluble on expression in E. coli
1 | MQNNSYGYAVSVRVGGKEHRHWERYDIDSDFLIPADSFDFVIGRLGPEAAIPDLSGESCEVVIDGQIVMTGIIGSQRHGKSKGSRELSLSGRDLAGFLVDCSAPQLNVKGMTVLDAAKKLAAPWPQIKAVVLKAENNPALGKIDIEPGETVWQALTHIANSVGLHPWLEPDGTLVVGGADYSSPPVATLCWSRTDSRCNIERMDIEWDTDNRFSEVTFLAQSHGRSGDSAKHDLKWVYKDPTMTLHRPKTVVVSDADNLAALQKQAKKQLADWRLEGFTLTITVGGHKTRDGVLWQPGLRVHVIDDEHGIDAVFFLMGRRFMLSRMDGTQTELRLKEDGIWTPDAYPK | not soluble
2 | MGSDKIHHHHHHMSIFFKPPIDIEILFDNEESRKHVDIATRSSNSSYKSMKESLPVYEDGESLGGIVTLRVRDSKKVDHLGIKVSVIGSIDMLKSHGSGNSSSKKVTSSTSSSSSNGSVDVRKNSVDQFLCQSYDLCPAGELQHSQSFPFLFRDLSKRYESYKGKNVDVAYYVKVTVMRKSTDISKIKRFWVYLYNSVTTAPNTLSANETKATTNDIAGGNYAADNASDNTQTKSTQGEAADVNQVLPISHSNNEPKPVRLDIGIENCLHIEFEYAKSQYSLKEVIVGRIYFLLTRLRIKHMELSLITRESSGLQTSNVMTDSTAIRYEIMDGSSVKGETIPIRLFLSGYDLTPNMSCNYFNVKNYLSLVIIDEDGRRYFKQSEITLYRTR | not soluble
3 | METNRPSPDALLVNLQEEADSSVGKLKIYFGFAAGVGKTYAMLSDAKDQLAAGVDVVAGYIEPHAREETLRMLEGIPIIPPKAINHKNIALKEFDLDEALKRKPELILVDELAHTNASGVRNKKRFQDVEELLQAGIDVYTTVNVQHIESLNDIVEGITKVAVRETIPDYVFDEADRVKLIDIEPDELLKRLEQGKIYQPARAKTAMQNFFTRENLKLLREIAMRKAADRI | not soluble
4 | MEYRKVGKWGVKISELSLGSWLTFGKQLDLDTATEVVKKAFNSGINFFDTAEAYAGGIAEAMLGKILKNFRREDLVVSTKIFWGGSGPNDLGLSKKHLLEGTWNSLKRLQMDYVDILYCHRPDPNVPMEEVVFAMDYILREGLALYWGTSEWSAKEIEEAHRVCKELGVMPPIVEQPQYNMFVRERVEKEYAPLYEKYGMGLTTYSPLASGLLSGKYNNGIPEGSRLATFPQVRKWLEEGGLLNEKTFKKLRKLQNIADQLGASLPQLAIAWILKNKNVSSVILGVSRPEQLEENLKAVEIKEKLTEDVMEEIEKILNE | soluble
5 | MVKDKQKAIFSENLNSYIAKSEKTQLEIAKSIGVSPQTFNTWCKGIAIPRMGKVQALADYFNINKSDLIEDKKLNIDTVPIESGYTIPVLGRVAAGYGKEAVEEVIGQIEISPSMAAKGDYFGLLIKGDSMIPTLYDGDTVIVERTDDAESGDLVIALVNGSDATCKRLQKYAEGIALIPQNPVYEPMRFTESEIDTTPVKILGKVVEMRRKFLEHHHHHH | soluble
6 | MSLDEGLLNKVKERGTLLVGLEGTYPPFSFQGDDGKLTGFEVEFAQQLAKHLGVEASLKPTKWDGMLASLDSKRIDVVINQVTISDERKKKYDFSTPYTISGIQALVKKGNEGTIKTADDLKGKKVGVGLGTNYEEWLRQNVQGVDVRTYDDDPTKYQDLRVGRIDAILVDRLAALDLVKKTNDTLAVTGEAFSRQESGVALRKGNEDLLKAVNDAIAEMQKDGTLQALSEKWFGADVTEGHHHHHH | soluble
7 | GPGSMMSLPVEAVKEFLLKLQDDICHAIEAEDEQATFMEDKWTREGGGGGRTRVIANGAVIEKGGVNFSHVYGKGLPGSSTERHPDMAGCNYQAMGVSLVIHPKNPHVPTSHANVRLFVAEKEGKEPVWWFGGGFDLTPYYAVEEDCYYFHHVAQELCRPFGADVYERFKAWCDEYFFIPHRNEARGIGGLFFDDLNEWPFEKCFAFMQAVGKGFIDAYIPIVNRRKNTPYTEQQVEFQEFRRGRYAEFNLVIDRGTKFGLQSGGRTESILMSLPPRARWGYNWHPEPGTPEARLTEYFLTKKQWV | soluble
8 | MGSDKIHHHHHHMRVALLMGGVSREREISLRSGERVKKALEKLGYEHTVFDVREDFLKKVDQLKSFDVVFNVLHGTFGEDVTLQAILDFLGIRYTGSDAFSSMICFDKLVTYRFLKGTVEIPDFVEIKEFMKTSPLGYPCVVKPRREGSSIGVFVCESDEEFQHALKEDLPRYGSVIVQKYIPGREMTVSILETEKGFEILPVLELRPKRRFYDYVAKYTKGETEFILPAPLNPSEERLVKEMALKAFVEAGCRGFGRVDGIFSDGRFYFLEINTVPGLTETSDLPASAKAGGIEFEELVEIILKSAFLKEGVRV | not soluble
9 | MGSDKIHHHHHHMKKVLTAALLMTAPFMANAGADFVKGDKTFAGEAELGATLTTGNTDTSSYKGRLNFKHELGDWENQYLLEGLYKEDTGAVTAKRYLAGAQGNYKMNDRSYWFANANYEVDPFTGYDYTLSGATGYGHRLLDTSKTFLDVEIGPGYIYQRLDSEQALLEGTDSNDSVVAHGVINFETEITETSKFQQRFVADYGEKLDARSETSLTANIIGALAMKFAIIVRYNSEPLDDKKSTDTETNMTLLYSF | not soluble
10 | MIIREATVQDYEEVARLHTQVHEAHVKERGDIFRSNEPTLNPSFFQAAVQGEKSTVLVFVDEREKIGAYSVIHLVQTPLLPTMQQRKTVYISDLCVDETRRGGGIGRLIFEAIISYGKAHQVDAIELDVYDFNDRAKAFYHSLGMRCQKQTMELPLLEHHHHHH | soluble
11 | MDKIVIKGGNKLTGEVKVEGAKNAVLPILTASLLASDKPSKLVNVPALSDVETINNVLTTLNADVTYKKDENAVVVDATKTLNEEAPYEYVSKMRASILVMGPLLARLGHAIVALPGGCAIGSRPIEQHIKGFEALGAEIHLENGNIYANAKDGLKGTSIHLDFPSVGATQNIIMAASLAKGKTLIENAAKEPEIVDLANYINEMGGRITGAGTDTITINGVESLHGVEHAIIPDRIEAGTLLIAGAITRGDIFVRGAIKEHMASLVYKLEEMGVELDYQEDGIRVRAEGELQPVDIKTLPHPGFPTDMQSQMMALLLTANGHKVVTETVFENRFMHVAEFKRMNANINVEGRSAKLEGKSQLQGAQVKATDLRAAAALILAGLVADGKTSVTELTHLDRGYVDLHGKLKQLGADIERIND | not soluble
12 | MIGATGSGGTGGHNDVVRQGFICPFCMEDFGEYERLICHVENDHPEEDSSDLAGMFVSNVKGFFDKAKRGIQKLDAKKSIADLASNVETEFTETTEKLVERAPLPRIPKPLPPDEILPGTRRSKTREFLSTRELNINEVAVRTNMLIIRLDRLINGGPKDKDPVKRKEFEREVVPWLDDAEAVCCPLCASRFGLTRRRHHCRLCGRVLCHSCSKFLSFDTAKTLTSSSNPLGDTHIIVEEPNTVENEQELLQPEENGRRSFFSLSQKSMDKMKRAMAGAVQKVHSAATGEEIIAGALNEQDLSEHMRVCNLCLRDLHFRESQMDKKEPPEFVQQYDLMKVMIEEVKNLVPTYVRVVTSLKNGESVYSHKHGEELRSKCLEIQKSIDYVSKKIAEGANDKPNSAKEQQLRKNIRLYAVQALQGLIGQMESLPTAEECSNLIIKRKERRAKDFARVNRTVMKMSSSMPQLQEQHSHLNSTSSVSSFGGPSSIDDGWSAEDNDLVFEPSSIEDDTIQTDHPLYEQREQLRKFLFQASATGKLDEMDILERNLKEIEEEMMRLGLSC | not soluble
13 | MGSDKIHHHHHHGYQFTDVVKVPATPVKNQASTGTCWCFATTSFMESELLRMGKGTYDLSEMFIVRQKYMNQLQDNYVRQGRGNIGQGSLSHTFMNAFNQVGIVPEEVYSGINYDSDRHNHAEMVKYIKAIATTAVDMKKRSPEYYKLIDNLFDTYLGKLPEKFTYQGKEYTPKTFAASLGLNMDDYIELTSFTHHPYYQKFEVEVPDNWEHAQMYNLPLNEMMEVADYALNNGYTVCWDGDVSEKGFSFKNGVAINPEVKKVEDYSTTDRARFEKMDEKERLEEVYKFEKPFPEVNVTPQVRQEGFEAFVTTDDHLMHLTGIAKDQNGTKYYITKNSWGTERNTFGGYLNMSDSFVRAKTIYIMVHKDAIPKAIKSKLGI | not soluble
14 | MSGTNRVAANLNMLFTNLPLLQRYGAAASAGFKLVEVSIPYTEPAEKLREAADEYHLKHTLINAPPGNWDDGFRGLASLKSAKKEFRKSLDTAIEYAKALGCCRVHVMAGIPKSDDDLENAHQTYSENVRFAAEKFKEHKLICLIEPINKYTIPGYHLNNYEDAMDVIQMDQSNNLKIQYDTFHAQQINGQIGAIMRKLKDYIGYIQVAQVPNRGACDTRGEIDYHFIFDEIRSINPSWVIGAEYLDAKPSFNWIENMSLSF | not soluble
15 | SLTMNPLLTAEWGNVSEEKVEVVVDAGLGKALLVPASVESLSMQFNGVEVASLEEFDYSPTKSNARIVIGIDPNELVRALERYFESNQHGELSVEAKLGLFGLLHSTLTFSREFQQDILGQMDFKAESKPIFGGLLYTPSVEGTKVVWLGAENGVWNLKTYATLKNPNSFPIPVSNLEFEVSVNGIKVGVGNISQGVTIPAGGVATVPIDTEIYSEYLPTVLVAHIKNGEESSVEVNFYITVSSGGKSARINLTSERIVIQTDIMASINDALSGVSPRE | soluble
16 | MGSDKIHHHHHHMEKILLVDDEQFVLDGLKRQLRRKYAIHTADGGEKGLQLIQSDGPFAVVVSDMRMPEMNGIEFLTQVRRVAPDSIRIMLTGYADQKTAINAINEGAIFRFLTKPCSLENLTVALDAALDQYRLITAEKELLEKTLKGSIKVLVDILSLSAPAAFSQATRLRKYAAQIVARLEFPDSWQYEIAALLSSIGFVNIPPETITKHLIGEKLTGREQEMIDAVPETAGMLLANIPRLSAVALMINRQNTPCSEPTAFKNGDFHEAVRIGANLLKVLTDFDILLIRNYEPEEAIRIMSERIGLYDRTLLNMLAILDLPRRDQGVRNIRIDDLREGMIIDADIRNTHGILVVPKGYEVNESTCQRLKNFLIRQTGAETVRVLMPVYAEEESQ | not soluble
17 | MAKRIKNTTPKQDGFRMPGEFEKQKQIWMLWPWRNDNWRLGAKPAQKAFLEVAEAISEFEPVSLCVPPLQYENALARVSELGSHNIRIIEMTNDDAWIRDCGPTFLVNDKGDLRAVDWEFNAWGGLVDGLYFPWDQDALVARKVCEIEGVDSYKTKDFVLEGGSIHVDGEGTVLVTEMCLLHPSRNPHLTKEDIEDKLKDYLNCVKVLWVKDGIDPYETNGHIDDVACFIRPGEVACIYTDDKEHPFYQEAKAAYDFLSQQTDAKGRPLKVHKMCVTKEPCYLQEAATIDYVEGSIPREEGEMAIASYLNFLIVNGGIILPQYGDENDQLAKQQVQEMFPDRKVVGVRTEEIAYGGGNIHCITQQQPATLEHHHHHH | soluble
18 | LLELLLLTSELYPDPVLPALSLLPHTVRTAPAEASSLLEAGNADAVLVDARNDLSSGRGLCRLLSSTGRSIPVLAVVSEGGLVAVSADWGLDEILLLSTGPAEIDARLRLVVGRRGDLADQESLGKVSLGELVIDEGTYTARLRGRPLDLTYKEFELLKYLAQHAGRVFTRAQLLHEVWGYDFFGGTRTVDVHVRRLRAKLGPEHEALIGTVRNVGYKAVRPARGRPPAADPDDEDADPGRDGMQEPLVDPLRSQ | not soluble
19 | MERNELFDLQTLSTRRKIIDRIQVTRMNTGKVDLKTSEFFEQQETQTRSKKKYIWSTGKSKLRRHFFVNRTLPTMKQH | not soluble
20 | MGLFDFFKKKSSSEKTPIEDGDKTVVKSEDTDDSAPGWEAIDAEFDRLYPDQPNPLHYGTIVKYMFGGPDPLDGISVYDAGDFWHFVSYGLSELYTKESTDSEYSGYGIELTFKLKKSTNDEEEIKNGCGLLQYVARYIFKTGKVVLPEEYIYMKQTVGIDIQQKSKLTGFLTVSDNLAKPLDTPHGKVEFVTLIGATDAELRSVYESETSKLEVRKLLQELGNQITDYNRQSLVLEHHHHHH | not soluble
